Assay results: paper PMC8096214
Where two headings read alike, the source gives them in different places.

T1: MgR D284A (RNase R, catalytically inactive) (Mycoplasma genitalium, UniProt P47350 1-725, D284A)
T1 sequence: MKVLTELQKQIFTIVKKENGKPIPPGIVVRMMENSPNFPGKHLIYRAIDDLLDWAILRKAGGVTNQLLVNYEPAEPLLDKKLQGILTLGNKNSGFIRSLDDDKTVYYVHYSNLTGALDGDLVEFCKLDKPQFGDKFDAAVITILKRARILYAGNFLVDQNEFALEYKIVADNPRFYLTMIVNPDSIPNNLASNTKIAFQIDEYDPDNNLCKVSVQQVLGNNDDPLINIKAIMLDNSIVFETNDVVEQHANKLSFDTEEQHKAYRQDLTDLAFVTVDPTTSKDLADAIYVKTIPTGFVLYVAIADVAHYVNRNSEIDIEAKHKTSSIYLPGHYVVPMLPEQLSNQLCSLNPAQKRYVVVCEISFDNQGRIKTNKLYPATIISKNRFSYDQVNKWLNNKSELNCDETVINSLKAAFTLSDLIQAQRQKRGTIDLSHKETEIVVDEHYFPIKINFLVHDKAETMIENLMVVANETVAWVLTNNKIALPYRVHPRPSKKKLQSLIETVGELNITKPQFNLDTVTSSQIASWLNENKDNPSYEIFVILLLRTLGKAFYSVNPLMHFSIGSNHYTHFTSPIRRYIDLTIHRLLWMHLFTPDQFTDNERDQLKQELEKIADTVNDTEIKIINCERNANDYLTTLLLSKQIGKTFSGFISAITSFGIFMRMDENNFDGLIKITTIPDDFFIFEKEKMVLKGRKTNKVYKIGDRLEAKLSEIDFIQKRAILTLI

B1: 4-nt 2'-O-methylated oligo rA (AAAmeA) (ssRNA)
RNA: AAAA
modifications: 2'-O-methyl at A3 ('me' read as suffix)
B2: 24-nt ssRNA, unmethylated (ssRNA)
RNA: CAAACAAAACCGUGUAAAAACAAA
B3: 6-bp dsRNA with 7-nt 3' overhang (dsRNA)
RNA 1: CCGUGUAAAAAAA
RNA 2: ACACGG
B4: 24-nt ssRNA, 2'-O-methylated (ssRNA)
RNA: CAAACAAAACCGUGUAAAAACAAA
modifications: 2'-O-methyl at G12, G14, A23 ('me' read as suffix, as in the rA15 30-mer)

What was measured:
[1] = molecular target: T1, MgR D284A (RNase R, catalytically …); test: crystal structure
[2] = molecular target: T1, MgR D284A (RNase R, catalytically …); test: fluorescence polarization
[3] = molecular target: T1, MgR D284A (RNase R, catalytically …); test: crystal structure; remark: listed apart in the source

Row | Binder | Kd [2] | further results
1 | B1 |  | binding result [1]: binds
2 | B2 | 6.62 ± 0.7 nM | 
3 | B3 |  | binding result [3]: binds
4 | B4 | 6.63 ± 0.69 nM | 
